Test results taken from US20220312749A1 (BIOCYTOGEN PHARMACEUTICALS BEIJING, published 2022).

Experiments:
Assay in all cases: inferred by the filing from p-STAT5 flow cytometry on humanized mouse splenocytes
[1] = target: T1, mouse IL2RG (mouse, UniProt P34902 23-369)
T1 construct: whole, on cells; also called CD132; common gamma chain
T1 sequence (looked up): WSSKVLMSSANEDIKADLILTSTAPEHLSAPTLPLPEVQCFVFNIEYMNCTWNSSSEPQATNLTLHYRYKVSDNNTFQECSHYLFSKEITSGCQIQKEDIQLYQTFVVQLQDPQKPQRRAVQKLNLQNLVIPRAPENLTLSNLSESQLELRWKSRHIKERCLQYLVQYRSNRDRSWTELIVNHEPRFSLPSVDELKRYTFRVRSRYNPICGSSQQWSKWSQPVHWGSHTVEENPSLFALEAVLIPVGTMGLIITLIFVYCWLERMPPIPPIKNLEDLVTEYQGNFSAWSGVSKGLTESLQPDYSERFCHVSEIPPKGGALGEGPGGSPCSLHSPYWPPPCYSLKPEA
Experimental: (§1) p-STAT5 is a known downstream signal in the IL2/IL2RA-mediated signaling pathway. Thus, the level of p-STAT5 in the IL2RA gene humanized mice can be detected to verify whether the IL2/IL2RA signaling pathway is functional in the humanized mice. Spleen cells from 14-week old wild-type C57BL/6 mice and IL2RA gene humanized homozygous mice were isolated (5×10⁵ cells/well, 4 wells each) and incubated in a 37° C. incubator for 30 minutes. […] Then, the stimulated cells were stained by APC Rat Anti-Mouse CD3 Molecular Complex, permeabilized, and stained by Phospho-Stat5 (Tyr694) (D47E7) XP® Rabbit mAb and Anti-rabbit IgG (H+L), F(ab′)2 Fragment (Alexa Fluor® 488 Conjugate), followed by flow cytometry analysis.

[2] = target: T2, Mouse recombinant interleukin 2 (mIL2) (mouse, UniProt P04351 21-169)
T2 construct: Bought reagent; also called recombinant mouse IL2; mouse IL2
T2 sequence (looked up): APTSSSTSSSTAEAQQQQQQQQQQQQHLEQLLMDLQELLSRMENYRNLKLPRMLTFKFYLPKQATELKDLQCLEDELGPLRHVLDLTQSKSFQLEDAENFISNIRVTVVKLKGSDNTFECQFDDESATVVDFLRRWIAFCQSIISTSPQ
Experimental: as §1

[3] = target: T3, mouse IL2RB (mouse, UniProt P16297 27-539)
T3 construct: whole, on cells; also called CD122
T3 sequence (looked up): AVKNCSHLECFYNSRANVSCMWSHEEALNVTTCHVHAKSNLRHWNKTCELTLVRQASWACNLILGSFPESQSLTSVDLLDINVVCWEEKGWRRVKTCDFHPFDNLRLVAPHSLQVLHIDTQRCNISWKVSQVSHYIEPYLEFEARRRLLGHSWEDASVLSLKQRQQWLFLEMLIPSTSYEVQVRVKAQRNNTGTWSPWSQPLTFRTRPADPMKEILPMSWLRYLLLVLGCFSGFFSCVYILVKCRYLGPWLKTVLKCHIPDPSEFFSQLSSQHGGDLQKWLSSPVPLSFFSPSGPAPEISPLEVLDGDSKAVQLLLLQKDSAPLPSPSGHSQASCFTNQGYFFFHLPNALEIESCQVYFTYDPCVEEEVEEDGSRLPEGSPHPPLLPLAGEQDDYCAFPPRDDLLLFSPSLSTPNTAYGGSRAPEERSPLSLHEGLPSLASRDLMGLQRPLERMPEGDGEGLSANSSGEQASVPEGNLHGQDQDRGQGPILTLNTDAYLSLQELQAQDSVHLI
Experimental: as §1

Measured: binding result

B1: humanized IL2RA protein (chimeric human/mouse IL2RA expressed by B-hIL2RA mice) (receptor)
chain: ELCDDDPPEIPHATFKAMAYKEGTMLNCECKRGFRRIKSGSLYMLCTGNSSHSSWDNQCQCTSSATRNTTKQVTPQPEEQKERKTTEMQSPMQPVDQASLPGHCREPPPWENEATERIYHFVVGQMVYYQCVQGYRALHRGPAESVCKMTHGKTRWTQPQLICTGEMETSQFPGEEKPQASPEGRPESETSCLVTTTDFQIQTEMAATMETSIFTTEYKVAVASCLFLLISILLLSGLTWQHRWRKSRRTI
notes: also called chimeric IL2RA; engineered mouse IL2RA after humanization
binds: all assays above
